{"source": "patent US20210253718A1", "about": "“FRIZZLED5 PROTEIN-BINDING AGENTS” (Modmab Therapeutics Corporation, priority 2016, published 2021)", "key": {"[1]": {"molecular_target": "T1, FZD6 CRD (Homo sapiens, UniProt O60353)", "T1 construct": "S20-P146; GPI anchor signal (C); expressed in transfected cells; host or cells: CHO cells, lentiviral pLenti-puro", "T1 sequence (O60353 20-146)": "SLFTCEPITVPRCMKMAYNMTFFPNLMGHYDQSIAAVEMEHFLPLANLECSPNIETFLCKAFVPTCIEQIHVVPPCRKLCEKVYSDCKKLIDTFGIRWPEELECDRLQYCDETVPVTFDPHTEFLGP", "test": "Immunofluorescence of anti-FZD5 Fab binding to CHO cells overexpressing Frizzled CRD", "design": "key: −: no binding; +: very weak binder; ++: weak binder; +++: good binder; ++++: very good binder", "experimental": "(§1) Plasmids: pLCKO lentiviral vector used for knockout (TKO) library construction and expression of individual gRNAs was constructed as described previously (Hart et al., 2015). Briefly, single guide RNA (sgRNA) scaffold was amplified from px330 (Addgene 42230) and cloned into pLKO.TRC005 lentiviral vector (Broad Institute, Cambridge, Mass.) using AgeI/EcoRI restriction sites. BfuAI sites were added at the 5′ end of the sgRNA scaffold for cloning the TKO library or individual gRNA target sequences. Lenti Cas9-2A-BsdR vector used to generate Cas9 stable expression cell lines was constructed as described previously (Hart et al., 2015). Briefly, lentiCRISPR pXPR_001 (Addgene 49535) was modified through removal of the sgRNA scaffold region through NdeI/EcoRI digest and blunt ends generation using Large Klenow Fragment (NEB). 2A-puro was replaced with 2A-BsdR by PCR using the NheI/MluI sites. Each of the 10 human Frizzled cysteine rich domains (CRDs) were cloned into the lentiviral expression plasmid pLenti-puro in the following cassette: FZD_CRD-MYC-GPI.\n(§2) To confirm that the FZD5-WNT7B circuit is not driven simply by expression and rule out the possibility of a disconnect between RNA and protein levels for the Wnt receptors in HPAF-II cells, a panel of recombinant Fabs were generated, alternatively referred to herein as ‘Frizzled profiler’, that can detect and discriminate all but one of the ten Frizzled receptors. […] To characterize the binding specificity of these Fabs on cells, a panel of 10 CHO cell lines was generated, each expressing the CRD domain of a different myc-tagged Frizzled family member anchored at the plasma membrane through a GPI anchor (CHO-myc-FZDGPI). Despite the high sequence identity between Frizzled family members (FIG. 7A, FIG. 7B), selective Fabs were identified for FZD4, FZD5, FZD6 and FZD10 as assessed by immunofluorescence and flow cytometry (FIG. 7D and FIG. 8). […] The FZD8 CRD is most homologous to that of FZD5 (FIG. 7B). These Fabs can be used to discriminate expression of FZD1, FZD2, FZD4, FZD5, FZD6, FZD7, FZD8, FZD9 and FZD10 (FIG. 7D and FIG. 8). The ‘Frizzled profiler’ therefore consists of 10 different Fabs that can be used to discriminate expression of 9 different Frizzled family members. The Frizzled profiler was then used to confirm that HPAF-II cells express FZD1, FZD5, FZD6 and possibly FZD8 (FIG. 7E).\n(§3) The binding of anti-FZD5 Fabs to cell surface-expressed Frizzled protein was further determined for each member of the Frizzled family via flow cytometry and immunofluorescence analysis of a panel of 10 CHO cell lines, each ectopically over-expressing the extracellular cysteine-rich domain (CRD) of a different Frizzled protein family member."}, "[2]": {"molecular_target": "T2, FZD3 CRD (Homo sapiens, UniProt Q9NPG1)", "T2 construct": "CRD of FZD1, FZD2, FZD3, FZD4, FZD5, FZD6, FZD7, FZD8, FZD9 or FZD10; GPI anchor signal (C); expressed in transfected cells; host or cells: CHO cells, lentiviral pLenti-puro", "T2 sequence (Q9NPG1 23-136 limits assumed)": "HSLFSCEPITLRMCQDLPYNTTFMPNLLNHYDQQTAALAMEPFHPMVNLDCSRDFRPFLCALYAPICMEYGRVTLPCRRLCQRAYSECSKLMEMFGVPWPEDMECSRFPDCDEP", "test": "Immunofluorescence of anti-FZD5 Fab binding to CHO cells overexpressing Frizzled CRD", "design": "key: −: no binding; +: very weak binder; ++: weak binder; +++: good binder; ++++: very good binder", "experimental": "as §1, §2, §3"}, "[3]": {"molecular_target": "T3, FZD2 CRD (Homo sapiens, UniProt Q14332)", "T3 construct": "D35-P161; GPI anchor signal (C); expressed in transfected cells; host or cells: CHO cells, lentiviral pLenti-puro", "test": "Immunofluorescence of anti-FZD5 Fab binding to CHO cells overexpressing Frizzled CRD", "design": "key: −: no binding; +: very weak binder; ++: weak binder; +++: good binder; ++++: very good binder", "experimental": "as §1, §2, §3"}, "[4]": {"molecular_target": "T4, FZD8 CRD (Homo sapiens, UniProt Q9H461)", "T4 construct": "K31-D155; GPI anchor signal (C); expressed in transfected cells; host or cells: CHO cells, lentiviral pLenti-puro", "T4 sequence (Q9H461 31-155)": "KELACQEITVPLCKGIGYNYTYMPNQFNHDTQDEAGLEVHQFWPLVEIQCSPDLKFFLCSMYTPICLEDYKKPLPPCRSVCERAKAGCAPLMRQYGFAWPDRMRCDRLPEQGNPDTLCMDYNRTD", "test": "Immunofluorescence of anti-FZD5 Fab binding to CHO cells overexpressing Frizzled CRD", "design": "key: −: no binding; +: very weak binder; ++: weak binder; +++: good binder; ++++: very good binder", "experimental": "as §1, §2, §3"}, "[5]": {"tested_on": "PATU8988S cells", "test": "Effect of anti-FZD5 Fabs on proliferation of pancreatic cancer cell lines (percent growth inhibition)", "type": "cell-based, human", "conditions": "Fab 2 μg/ml"}, "[6]": {"molecular_target": "T5, FZD7 CRD (Homo sapiens, UniProt O75084)", "T5 construct": "D45-S169; GPI anchor signal (C); expressed in transfected cells; host or cells: CHO cells, lentiviral pLenti-puro", "test": "Flow cytometry of anti-FZD5 Fab binding to CHO cells overexpressing Frizzled CRD", "experimental": "as §1\n(§4) Flow cytometry: Primary staining of cells was performed by treatment with 200 nM Frizzled profiler Fab. Alexa Fluor 488 AffiniPure F(ab′)2 was used as the secondary antibody (Jackson ImmunoResearch #109-546-097). c-Myc (9E10) IgG1 (primary antibody, Santa Cruz, lot #D0306) and Alexa Fluor 488 IgG (secondary antibody, Life technologies, lot #1458649) were used as controls. Dead cells were excluded by staining with Fixable Viability Dye eFluor 660 (eBioscience, catalogue number 65-0864). All reagents were used as per manufacturer's instructions. Flow cytometry was performed on a BD FACSCanto II flow cytometer (BD Biosciences), and data were analyzed with FlowJo software (FlowJo, LLC).\nas §2, §3"}, "[7]": {"molecular_target": "T6, FZD1 CRD (Homo sapiens, UniProt Q9UP38)", "T6 construct": "D112-P238; GPI anchor signal (C); expressed in transfected cells; host or cells: CHO cells, lentiviral pLenti-puro", "test": "Flow cytometry of anti-FZD5 Fab binding to CHO cells overexpressing Frizzled CRD", "experimental": "as §1, §4, §2, §3"}, "[8]": {"molecular_target": "T2, FZD3 CRD", "test": "Flow cytometry of anti-FZD5 Fab binding to CHO cells overexpressing Frizzled CRD", "experimental": "as §1, §4, §2, §3"}, "[9]": {"molecular_target": "T4, FZD8 CRD", "test": "Flow cytometry of anti-FZD5 Fab binding to CHO cells overexpressing Frizzled CRD", "experimental": "as §1, §4, §2, §3"}, "[10]": {"tested_on": "ASPC-1 cells", "test": "Effect of anti-FZD5 Fabs on proliferation of pancreatic cancer cell lines (percent growth inhibition)", "type": "cell-based, human", "conditions": "Fab 2 μg/ml"}}}
{"substance": "Fab-2931: anti-FZD5 Fab with antibody variable region Fv-2931; CDR SEQ ID NOs: 35, 36, 70, 102, 146, 176 (CDR 1 QSVSSA; CDR 2 SAS; CDR 3 QQSSYSLIT; CDR 4 GFNLSYSS; CDR 5 ISPYSGST; CDR 6 ARGSYWYVGGGWWVSGHGGMDY)", "values": [{"measurement": "Immunofluorescence binding, Frizzled CRD overexpressed on CHO cells: FZD6", "setting": "[1]", "value": "−"}, {"measurement": "Immunofluorescence binding, Frizzled CRD overexpressed on CHO cells: FZD3", "setting": "[2]", "value": "−"}, {"measurement": "Immunofluorescence binding, Frizzled CRD overexpressed on CHO cells: FZD2", "setting": "[3]", "value": "+"}, {"measurement": "Immunofluorescence binding, Frizzled CRD overexpressed on CHO cells: FZD8", "setting": "[4]", "value": "−"}, {"measurement": "percent growth inhibition, PATU8988s 2 μg/ml", "setting": "[5]", "value": "−20.00", "unit": "%"}, {"measurement": "Median fluorescence, Frizzled CRD overexpressed on CHO cells: FZD7", "setting": "[6]", "value": 9.14}, {"measurement": "Median fluorescence, Frizzled CRD overexpressed on CHO cells: FZD1", "setting": "[7]", "value": 10.27}, {"measurement": "Median fluorescence, Frizzled CRD overexpressed on CHO cells: FZD3", "setting": "[8]", "value": 3.49}, {"measurement": "Median fluorescence, Frizzled CRD overexpressed on CHO cells: FZD8", "setting": "[9]", "value": 7.43}, {"measurement": "percent growth inhibition, ASPC-1 2 μg/ml", "setting": "[10]", "value": 10.33, "unit": "%"}]}
